Where two headings read alike, the source gives them in different places.

Holding throughout (test): split reporter
In test [1] the target is SmBiT-CHIP.
Test [2] has as its target SmBiT-CHIP. The source holds these as a separate data set.
The target in another test is SmBiT-CHIP K30A.
The next test has as its target SmBiT-CHIP-FLAG.

Chain of SmBiT-CHIP (Q9UNE7 whole entry): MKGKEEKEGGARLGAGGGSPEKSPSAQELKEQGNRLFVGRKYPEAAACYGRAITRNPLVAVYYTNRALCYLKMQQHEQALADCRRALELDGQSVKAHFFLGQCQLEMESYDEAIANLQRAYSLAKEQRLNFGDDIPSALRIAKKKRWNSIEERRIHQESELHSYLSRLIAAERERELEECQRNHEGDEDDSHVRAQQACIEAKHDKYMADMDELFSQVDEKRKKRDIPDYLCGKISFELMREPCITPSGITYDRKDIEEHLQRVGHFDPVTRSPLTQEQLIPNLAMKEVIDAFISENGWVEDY
Chain of SmBiT-CHIP-FLAG (Q9UNE7 whole entry): as above

B1: LgBiT-IEEVD (peptide)
chain: GGSGIEEVD
Regarding B1, the fold increase in luminescence over the negative control with SmBiT-CHIP [1] is 160 to 180 fold; with SmBiT-CHIP [2], 180 fold; in the test with SmBiT-CHIP K30A it was 97 fold.

B2: myc-LgBiT-IEEVD (peptide)
chain: GGSGIEEVD
Consider B2, for which the luminescence with dox with SmBiT-CHIP-FLAG came out at 47300 RLU.

B3: LgBiT-LWWPD (peptide)
chain: GGSGLWWPD
Regarding B3, the fold increase in luminescence over the negative control with SmBiT-CHIP [2] worked out at 300 fold.

The values are drawn from paper PMC8054679.
